# Assay: soluble on expression in E. coli; label from the status in PepcDB or PDB records
row,Sequence,soluble on expression in E. coli
1,TRTLRGVMRVGLVAKCLLLKGDLDLELVLLCKEKPTTALLDKVADNLAIQLAAVTEDKYEILQSVDDAAIVIKNTKEPPLSLTIHLTSPVVREEMEKVLAGETLSVNDPPDVLDRQKCLAALASLRHAKWFQARANGLKSCVIVIRVLRDLCTRVPTWGPLRGWPLELLCEKSIGTANRPMGAGEALRRVLECLASGIVMPDGSGIYDPCEKEATDAIGHLDRQQREDITQSAQHALRLAAFGQLHKVLGMD,not soluble
2,MGSDKIHHHHHHMKDKDINNDFNHIFPKDIRDDFLFSLDSYRLFLEGLSINPSLFYQKWSDVHLQSIIDKYWKPTQKSDWKWSLALPIFSLLENYINTFNKPIIIGFSGLPGSGKSTLGLWIDSVARELSLDIKVISLDDFYLPGHEMDVAMTGNPWNVPRGFPGSHSLDLLNQSLDVFLKTGVLNSPTFDKSLRDGKGDRSGWCDSQPRVLILEGWFVGCEAVSDLSKIDSMAADEFNLSLSQSEKDYRILIQESLFEYSHIWKKFEKIWHLKSSQFNNTILWKSQQEGEMIKLKGSGLKGNNLSNFIRMIQTSIPQQSLSFINSDTTVGINQDRRINFLKTSKYYF,not soluble
3,MSAPVQCPIHPDVHLIEDHRAGDLVCPACGLVVGDRLVDVGTEWRSFSNERSGNDPSRVGAPENPLLSGGDLSTTIAVGFGGSDSDNSLANAQRKSMNNTDRQMTAAMSLIREMSERIHLPRNIQDSASRIFKDVLESKALRGKNNEAQAAACLYIACRKDGVPRTFKEICAVSRVSKKEIGRCFKIIVRSLETNLEQITSADFMSRFCGNLSLPNSIQAAATRIAKCAVDMDLVAGRTPISIAAAAIYMASQASAEKRSAKEIGDVAGAAEITVRQTYKLLYPKALELFPKDFRFVTPIDALPNS,not soluble
4,SFHGIPATPGIGAPGNKPELYEEVKLYKNAREREKYDNMAELFAVVKTMQALEKAYIKDCVSPSEYTAACSRLLVQYKAAFRQVQGSEISSIDEFCRKFRLDCPLAMERIKEDRPITIKDDKGNLNRCIADVVSLFITVMDKLRLEIRAMDEIQPDLRELMETMHRMSHLPPDFEGRQTVSQWLQTLSGMSASDELDDSQVRQMLFDLESAYNAFNRFLHA,soluble
5,MKAAVVEQFKEPLKIKEVEKPTISYGEVLVRIKACGVCHTDLHAAHGDWPVKPKLPLIPGHEGVGIVEEVGPGVTHLKVGDRVGIPWLYSACGHCDYCLSGQETLCEHQKNAGYSVDGGYAEYCRAAADYVVKIPDNLSFEEAAPIFCAGVTTYKALKVTGAKPGEWVAIYGIGGLGHVAVQYAKAMGLNVVAVDIGDEKLELAKELGADLVVNPLKEDAAKFMKEKVGGVHAAVVTAVSKPAFQSAYNSIRRGGACVLVGLPPEEMPIPIFDTVLNGIKIIGSIVGTRKDLQEALQFAAEGKVKTIIEVQPLEKINEVFDRMLKGQINGRVVLTLEDK,soluble
6,MGSDKIHHHHHHMEVLSGECRSASSVASAGGGHAESWARYASMDRKGESSMAAQQPTILATSGGYKAGRRSRLEFDALLHHAVELSGVTGRAPRVTHIGTAAGDQRSFNAELDQAAKIAGFDFSHLNLFTMPSIDDPEAHLLEQDVVWVNGGSVVNLLAVWRAHGLDGILRRVWEAGVVLAGVSAGSICWFQGGTTDSYGPQLRPVTNALGFLPYANGVHYDSEVQRRPLVHRLVADGTLGETHCTDDGAGLVYFGTHLAEAVTEVRGKAAYRVTRHIQGGGAATAAEERLEARFLG,not soluble
7,MGSDKIHHHHHHMKVLQYFENPGLISRSGIGHAQRLQQEELSYTDIVLDTSPFSKDYDLIDVNTYGPKSLAMVAKARLQNRKVVYHAHSTYEDFRNSFIGSNFLSKPFKKHLIKAYRQADLIITPTPYAKSLLRSYGLKQPIVPISNGVRVSSYRRNKSKIIKFRQFLNLKENDKRKIIISVGLYFQRKGIMDFVELARRNPEHLFVWFGYTDLRIIPKKIRETVKKDHPDNCVFAGYITGDVLQGAYSGADLFLYPSYEETEGIVVLEALASSQKVLVRDIPVYNDWLHDGFDCYKASNLDEFDKRLNEILAGKVKNVSKAGHEVALKRDVSLIGPQLKKAYEEALSLPSQESR,not soluble
8,MSNVQTSAEREIVDLSHLAFDCGMLGRLKTVSWTPVIAGDSFELDAVGALRLSPLRRGLAIDSKVDFFTFYIPHRHVYGDQWIQFMRDGVNAQPLPSVTCNRYPDHAGYVGTIVPANNRIPKFLHQSYLNIYNNYFRAPWMPERTEANPSNLNEDDARYGFRCCHLKNIWSAPLPPETKLAEEMGIESNSIDIMGLQAAYAQLHTEQERTYFMQRYRDVISSFGGSTSYDADNRPLLVMHTDFWASGYDVDGTDQSSLGQFSGRVQQTFKHSVPRFFVPEHGVMMTLALIRFPPISPLEHHYLAGKSQLTYTDLAGDPALIGNLPPREISYRDLFRDGRSGIKIKVAESIWYRTHPDYVNFKYHDLHGFPFLDDAPGTSTGDNLQEAILVRHQDYDACFQSQQLLQWNKQARYNVSVYRHMPTVRDSIMTS,soluble
9,MQEEVNQKTVALSIRTTKLTGKVLAAALGKVVRALQKHHRKALTPQGRQSVKKLMNHYGGKSAMPYVGAPKDFDRIAKEFHVDYAFHKVSPGHYLLFFKANQADAITAAFQKYSAKVLNKEQDKASILGQLRKFTEQIRTQAKEKQRTREAVKDGR,not soluble
10,MKAAEHDLLTIELAPRRRDELQIHNKKIAEVDHWLKNVFSESNKQLGVMYLTGPAGSGKSTTVEVMCTEQNIEIIEYSPEYLHNEDFECEKPDFTQLRRFLLRRHGSLRGGGLKKRLLLVTELPDQAYSDAEKFREDLSEVLQHIWHPVIFCLTNSIACWNLNPDRLFTKDFNIMNGIDTVTFNPVADSFMKKALVRASNCLSSPLSDAKLNVIGEEAGGDLRIAMNMLQMNSIGPNADRRSGNSVICASKANREEAFHMIGRILYAKRVNPNVPKPSRFSKRRRKSAPIPEPLVRTELEHDPTDIITMSSMTSEKLLDFLFQNEPIFCSNISKYRYVAETFSMCDFLTGDWTTRKSLPEDYVAQMATRSVMWNNYKEPRPGTLFAVGRPLRSSLEKHTARTKLELQRLPMIGAKDYAALTCPYITIIKDIIDPQRIEYFLSRPMDINWQWGNDKIEEHLEKQYALDYKGRKKHRLPLHKAPKPSGKIIEVVDLEEEEEKFTIEESSDDSFEEF,not soluble
11,MSLKEDYADVRNVMIMGGSRIAVRTAQYVPDYMQVKIVDNDINRCNRLTELLDDKTMIINGDGRDMDLLIEEGLKNTEAFVALTDNSETNILACLAAKRMGVEKTVAEVENIDYIGMAESLDIGTVINKKMIAASHIYQMMLDADVSNVKCLTFANADVAEFTVPAGAKITKNLIKDLGLPKGTTIGGMIRNGEGVLVTGDTLIRPGDHVVVFCLSMMIKKIEKFFNEGHHHHHH,not soluble
12,MGSDKIHHHHHHMGNVASSEVINQLEAWYQAIKRLQLAEATTIKHEVMQAIDGMDQDRKVFLYYHLIDSRYHLLIHQWDYAGAILKGLKAQVELKETDKLLRYYYYFFSGLYEFHTKQYIEAIHFYRLAESLLKDIPDDIEQAEFNYQLAVAYYEIDQHFVSMDHAEKALELYLQNDQYKNRVATTQMIVAANQLDLYQFASAEALYKNAIELASDVQDFFVKGMGYYNLGVCYDRQDKLDLARECFESALYVDLPKSQYQGVMVGTKYMLARVLFKQGILEEGMHWFEEAKALADEMKDASYQAKLSTIHSIYKERDEVEIDDGLRVLKEGKLWSDVFELAINAARHFQEKEDYSLAAKYFDEGLVAKDQIKAWKEDTAST,not soluble
13,SQRGVLEDEQMYQRCCNLFEKFFPSSSYRRPVGISSMVEAMVSRARIDARIDFESGRIKKEEFTEIMKICSTIEELRRQK,soluble
14,MAHHHHHHMSDDIMNGDTLSEYRKIHKKNYEERIIKENELIEKQKTEELLNEKKKNEEIYRQLQIDKDREYSKQCYYEINNFQNIHERTYNDSDIRENYTQRLINPSAYSYIDNNMTQNLLDGDMGYTFSQRIRRFFLNK,not soluble
15,SLKTLFEVKQLLKQYGAFIYTRDLDADMQLMQMEMEELHRLGLIERGEFQQAMLVLKREQRAAKMGERAND,soluble
16,MLRHHSCALLMLILVFVEVFATQSPTFDRQDRDYRPLQFGKRDGYRPLQFGKRDYRPLQFGKRSSGSSGPVVLEPIWEWQ,soluble
17,MSGIGKRELIELYDKLLQFYGKQNWWPVDLEYHKTHGSDPREEVIIGAILTQNTSWKNVEKALENLKREKALNLKAIKEIPTEKLMELIKPAGFYRQKSLYLKEFANKFPSISHLKNVKREDLLKVKGIGKETADAILLYALDRLEFVVDAYTKRLLERLWNIKGSYEEIKRLFEKNLPKDLEIYREFHALIDIHAKEFCKKKPLCEECPLREKCIKSCF,soluble
18,MAHHHHHHMSISVRIRTPKSSTPEQVELNSSGTWGEAAVLLSRKSEVALERLRVLAGFPPKAVDLAADSPLSALKLRANDMLIVQEGEAKVQLGNTGERYVPPAPERAHLTRRRCPADNSCLFHACAYVLRDKSRTEGPQLRQECVQAVLDHPEMFNVNTLGMDPLAYASWLSQKDTWGGAIELEILSFLYKTEMFALDLQSVTVQRFGTGLGYTVRAFLVYTGNHYDCIAMNPVYNSASEREDQTLFSSRDENVLVRAKRFVAEEGQKMKEGKAT,soluble
19,MAYFALGLATATKNRDGKIIEAFFPTPILAPSDALVAALAPIAGYQEGNQALDITAAQSAQLAAVFAAHQQAASAAFADKAANAKQPLVLVILASDDKPQSVAEGYLKLQLISHRLVKPHGTVLDGIFGLLHNIAWTNEGPIDLPELAERQIEARLAGRVLTVDCVDKFPKMVDYVVPAGIRIADTSRVRLGAHVGEGTTVMHEGFINFNAGTTGVSMVEGRISAGVVVGNGSDIGGGASIMGTLSGGGKVVVSIGENSLLGANAGLGFPLGDRCTVESGLYVTAGTKVRTLDKDGNQVDIVKARDLAGVSDLLFRRNSLTGQIECLANKSAVELNSELHKNN,not soluble
20,MLTGLFFGSFNPMHIGHLALANYLTEYTPIGQLWFVPSPLNPLKNTQELLPYDLRCELIEQAIRKDIRFQVLRIEELLPSPHYTIRTLRALSMLYPHHRFALLIGADNWQSFDRWKDHHRLMAKYELIIYPRFGYEVDDTTLPTGCRYIHDAPRIEISSTQIRTSILEGKDLRYWLPLPESQDVIASALQSCLSPKR,not soluble
21,MGSDKIHHHHHHMEFSAKQIAAFIQGEIIGDENATVHTFAKIEEGMPGAISFLSNPKYTPYIYETQSSIVLVNKDFVPEHEIRATLIKVDNAYESLAKLLNLYEMSKPKKQGIDSLAYIAPSAKIGENVYIGAFAYIGENAVIGDNTQIYPHTFVGDGVKIGNGCLLYSNVNVYHDCRIGNECILHSGAVIGADGFGFAPTPNGYDKIPQIGIVILEDKVDIGANTCVDRATMGATIIHSGAKIDNLVQIAHNDEIGSHTVMAAQVGIAGSAKIGEWCMFGGQVGIAGHITIGDRVNLGAQSGIPSSIKADSVLIGTPPMEPKAYFKAAVVTKNLPDMQKEIRNLRKEVEELKQLLNK,not soluble
22,MRLLTWDVKDTLLRLRHPLGEAYATKARAHGLEVEPSALEQGFRQAYRAQSHSFPNYGLSHGLTSRQWWLDVVLQTFHLAGVQDAQAVAPIAEQLYKDFSHPCTWQVLDGAEDTLRECRTRGLRLAVISNFDRRLEGILGGLGLREHFDFVLTSEAAGWPKPDPRIFQEALRLAHMEPVVAAHVGDNYLCDYQGPRAVGMHSFLVVGPQALDPVVRDSVPKEHILPSLAHLLPALDCLEGSAENLYFQSHHHHHHDYKDDDDK,soluble
23,MTGRLQNKVIVITGASSGIGEQVAMQVAEQGATPVLMARTEEKLKALADKIKETYNTPCYYYVLDVSEETEVQSVFSKVLQEVGRIDILVNNAGFGIFKTFEDASMDEVKDMFQVNVFGLVACTKAVLPYMVKRNEGHIINIASLAGKIATPKSSAYAATKHAVLGFTNSLRMELSSTNVFVTAINPGPIDTNFFEIADQSGTYVKNMGRYMLKPTYVAEQIVKSMQTKKREVNLPKWMGIGPKLYALFPGLFERVAGKSLSKK,not soluble

# Reference: the DeepSol protein solubility set
